Laboratory results from patent US20240197738.

Target: EWS-FLI1-3A (S464A/S465A/S466A)

B1: OTUD7A (protein)
chain: MVSSVLPNPTSAECWAALLHDPMTLDMDAVLSDFVRSTGAEPGLARDLLEGKNWDLTAALSDYEQLRQVHTANLPHVFNEGRGPKQPEREPQPGHKVERPCLQRQDDIAQEKRLSRGISHASSAIVSLARSHVASECNNEQFPLEMPIYTFQLPDLSVYSEDFRSFIERDLIEQATMVALEQAGRLNWWSTVCTSCKRLLPLATTGDGNCLLHAASLGMWGFHDRDLVLRKALYTMMRTGAEREALKRRWRWQQTQQNKEEEWEREWTELLKLASSEPRTHFSKNGGTGGGVDNSEDPVYESLEEFHVFVLAHILRRPIVVVADTMLRDSGGEAFAPIPFGGIYLPLEVPPNRCHCSPLVLAYDQAHFSALVSMEQRDQQREQAVIPLTDSEHKLLPLHFAVDPGKDWEWGKDDNDNARLAHLILSLEAKLNLLHSYMNVTWIRIPSETRAPLAQPESPTASAGEDVQSLADSLDSDRDSVCSNSNSNNGKNGKDKEKEKQRKEKDKTRADSVANKLGSFSKTLGIKLKKNMGGLGGLVHGKMGRANSANGKNGDSAERGKEKKAKSRKGSKEESGASASTSPSEKTTPSPTDKAAGASPAEKGGGPRGDAWKYSTDVKLSLNILRAAMQGERKFIFAGLLLTSHRHQFHEEMIGYYLTSAQERFSAEQEQRRRDAATAAAAAAAAAAATAKRPPRRPETEGVPVPERASPGPPTQLVLKLKERPSPGPAAGRAARAAAGGTASPGGGARRASASGPVPGRSPPAPARQSVIHVQASGARDEACAPAVGALRPCATYPQQNRSLSSQSYSPARAAALRTVNTVESLARAVPGALPGAAGTAGAAEHKSQTYTNGFGALRDGLEFADADAPTARSNGECGRGGPGPVQRRCQRENCAFYGRAETEHYCSYCYREELRRRREARGARP
- 3A-EWS-FLI1 protein level after OTUD7A depletion (immunoblot, FIG. 3I): depletion of OTUD7A failed to reduce 3A-EWS-FLI1 protein levels
